Reference: the supplement of paper PMC9112550, “Optimization of the antimicrobial peptide Bac7 by deep mutational scanning” (BMC Biology, 2022)

The sequences below were run on Escherichia coli TOP10 (assay: shrunken log2 fold change of peptide-encoding DNA abundance (4.5 h post-induction vs induction); higher = less antimicrobial activity (less host growth inhibition)). Conditions: time post-induction: 4.5 h; library: site-saturation at positions 5, 18, 19, 20.
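Note: peptides expressed intracellularly from a pBAD plasmid library in pooled LB shake-flask culture, induced with 0.3% L-arabinose, DNA abundance read by NGS, three biological replicates, DESeq2 with apeglm shrinkage.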

In order of rising “shrunken log2 fold change” value:
1. RRIRYRPPRLPRPRPRPYAYPRP  -0.948
2. RRIRYRPPRLPRPRPRPNGNPRP  -0.561
3. RRIRCRPPRLPRPRPRPHCPPRP  -0.508
4. RRIRARPPRLPRPRPRPQYYPRP  -0.452
5. RRIRTRPPRLPRPRPRPQAHPRP  -0.452
6. RRIRCRPPRLPRPRPRPGHHPRP  -0.439
7. RRIRSRPPRLPRPRPRPNLSPRP  -0.425
8. RRIRWRPPRLPRPRPRPYRAPRP  -0.399
9. RRIRWRPPRLPRPRPRPYSDPRP  -0.381
10. RRIRYRPPRLPRPRPRPTHKPRP  -0.329
11. RRIRYRPPRLPRPRPRPQADPRP  -0.323
12. RRIRPRPPRLPRPRPRPNDYPRP  -0.307
13. RRIRWRPPRLPRPRPRPNFSPRP  -0.305
14. RRIRVRPPRLPRPRPRPPFNPRP  -0.303
15. RRIRSRPPRLPRPRPRPQYYPRP  -0.29
16. RRIRQRPPRLPRPRPRPDCPPRP  -0.283
17. RRIRYRPPRLPRPRPRPNGHPRP  -0.24
18. RRIRKRPPRLPRPRPRPYTNPRP  -0.21
19. RRIRDRPPRLPRPRPRPIKYPRP  -0.206
20. RRIRYRPPRLPRPRPRPCVYPRP  -0.197
21. RRIRFRPPRLPRPRPRPIVLPRP  -0.196
22. RRIRFRPPRLPRPRPRPILIPRP  -0.194
23. RRIRHRPPRLPRPRPRPWSGPRP  -0.17
24. RRIRWRPPRLPRPRPRPSEKPRP  -0.153
25. RRIRTRPPRLPRPRPRPCGHPRP  -0.14
26. RRIRIRPPRLPRPRPRPKHLPRP  -0.137
27. RRIRNRPPRLPRPRPRPLKMPRP  -0.136
28. RRIRHRPPRLPRPRPRPESKPRP  -0.135
29. RRIRQRPPRLPRPRPRPNYEPRP  -0.123
30. RRIRGRPPRLPRPRPRPHFQPRP  -0.099
31. RRIRQRPPRLPRPRPRPVEDPRP  -0.0933
32. RRIRRRPPRLPRPRPRPFVIPRP  -0.0863
33. RRIRTRPPRLPRPRPRPENTPRP  -0.0831
34. RRIRQRPPRLPRPRPRPQQIPRP  -0.0822
35. RRIRERPPRLPRPRPRPNRLPRP  -0.0671
36. RRIRSRPPRLPRPRPRPCNSPRP  -0.0626
37. RRIRVRPPRLPRPRPRPRIIPRP  -0.0581
38. RRIRRRPPRLPRPRPRPSGPPRP  -0.0409
39. RRIRYRPPRLPRPRPRPEKLPRP  -0.034
40. RRIRVRPPRLPRPRPRPCFWPRP  -0.0218
41. RRIRQRPPRLPRPRPRPDEFPRP  -0.0132
42. RRIRLRPPRLPRPRPRPGEWPRP  -0.00947
43. RRIRKRPPRLPRPRPRPWHMPRP  -0.00936
44. RRIRYRPPRLPRPRPRPMKEPRP  -0.00804
45. RRIRVRPPRLPRPRPRPPDNPRP  -0.00642
46. RRIRSRPPRLPRPRPRPAYEPRP  0.00308
47. RRIRDRPPRLPRPRPRPFVSPRP  0.00609
48. RRIRTRPPRLPRPRPRPCWNPRP  0.00718
49. RRIRSRPPRLPRPRPRPMMCPRP  0.0105
50. RRIRYRPPRLPRPRPRPGYEPRP  0.026
51. RRIRIRPPRLPRPRPRPDAIPRP  0.0309
52. RRIRSRPPRLPRPRPRPMSWPRP  0.0314
53. RRIRMRPPRLPRPRPRPEEDPRP  0.0356
54. RRIRIRPPRLPRPRPRPPFQPRP  0.0365
55. RRIRIRPPRLPRPRPRPTLVPRP  0.0386
56. RRIRRRPPRLPRPRPRPAKLPRP  0.0542
57. RRIRRRPPRLPRPRPRPDILPRP  0.0906
58. RRIRQRPPRLPRPRPRPYSIPRP  0.098
59. RRIRWRPPRLPRPRPRPIACPRP  0.0997
60. RRIRQRPPRLPRPRPRPAASPRP  0.129
61. RRIRARPPRLPRPRPRPQSAPRP  0.153
62. RRIRCRPPRLPRPRPRPDGGPRP  0.196
63. RRIRERPPRLPRPRPRPRPDPRP  0.205
64. RRIRWRPPRLPRPRPRPCGEPRP  0.216
65. RRIRTRPPRLPRPRPRPVWAPRP  0.237
66. RRIRHRPPRLPRPRPRPKPVPRP  0.239
67. RRIRWRPPRLPRPRPRPNTWPRP  0.245
68. RRIRFRPPRLPRPRPRPQPDPRP  0.254
69. RRIRRRPPRLPRPRPRPKVSPRP  0.267
70. RRIRHRPPRLPRPRPRPTPGPRP  0.327
71. RRIRGRPPRLPRPRPRPCWAPRP  0.485
72. RRIRKRPPRLPRPRPRPRGTPRP  0.648
73. RRIRGRPPRLPRPRPRPTPKPRP  1.2
74. RRIRMRPPRLPRPRPRPTRAPRP  1.42
75. RRIRMRPPRLPRPRPRPELTPRP  3.52
